Reference: PMC3088361

These substances were tested against soluble CD4 (UniProt P01730) (assay: SPR).

| Substance | Kd [nM] |
| --- | --- |
| HIV-1 YU-2 gp120 P124A (natural protein) | 26.2 |
| HIV-1 YU-2 gp120 T283A (natural protein) | 16.7 |
| HIV-1 YU-2 gp120 I420R (natural protein) | 24.8 |
| HIV-1 YU-2 gp120 S375W/T257S (natural protein) | 0.9 |
| HIV-1 YU-2 gp120 K282A (natural protein) | 11.9 |
| HIV-1 YU-2 gp120 N280A (natural protein) | 6.8 |
| HIV-1 YU-2 gp120 R456A (natural protein) | 11.3 |
| HIV-1 YU-2 gp120 A281G (natural protein) | 12.3 |
| HIV-1 YU-2 gp120 N279A (natural protein) | 34.6 |
| HIV-1 YU-2 gp120 I423M/N425K/G431E (natural protein) | 78.1 |
| HIV-1 YU-2 gp120 T278A (natural protein) | 7.3 |
